B1: clone MS502-1 anti-MSLN antibody (antibody, V domains shown)
VH: EVQLLESGGGLVQPGGSLRLSCAASGFTFSNYAMSWVRQAPGKGLEWVSGIPPDSGSKYYADSVRGRFTVSRDNSKNTLYLQMNSLRAEDTAVYYCAKNMLSFDYWGQGTLVTVSS
VL: QSVLTQPPSASGTPGQRVTISCICSSSNIGSNAVSWYQQLPGTAPKLLIYYNSKRPSGVPDRFSGSKSGTSASLAISGLRSEDEADYYCGSWDSSLNGYVFGGGTKLTVLG
B2: clone MS501 anti-MSLN antibody (antibody, V domains shown)
VH: EVQLLESGGGLVQPGGSLRLSCAASGFTFSNYAMSWVRQAPGKGLEWVSGIYPDSGSTYYADSVKGRFTISRDNSKNTLYLQMNSLRAEDTAVYYCARNIYTFDYWGQGTLVTVSS
VL: QSVLTQPPSASGTPGQRVTISCSGSSSNIGSNAVSWYQQLPGTAPKLLIYYNNQRPSGVPDRFSGSKSGTSASLAISGLRSEDEADYYCGSWDSSLSGYVFGGGTKLTVLG
notes: From a phage display synthetic scFv library
B3: clone MS503 anti-MSLN antibody (antibody, IgG1, V domains shown)
VH: EVQLLESGGGLVQPGGSLRLSCAASGFTFSNYAMSWVRQAPGKGLEWVSSIYPGDGSTYYADSVKGRFTISRDNSKNTLYLQMNSLRAEDTAVYYCAKNAFTFDYWGQGTLVTVSS
VL: QSVLTQPPSASGTPGQRVTISCSGSSSNIGSNAVSWYQQLPGTAPKLLIYYNSHRPSGVPDRFSGSKSGTSASLAISGLRSEDEADYYCGTWDSSLSGYVFGGGTKLTVLG
notes: as for B2
B4: clone MS506 anti-MSLN antibody (antibody, IgG1, V domains shown)
VH: EVQLLESGGGLVQPGGSLRLSCAASGFTFSNYAMSWVRQAPGKGLEWVSSIYPGSGSTYYADSVKGRFTISRDNSKNTLYLQMNSLRAEDTAVYYCARNLYTFDYWGQGTLVTVSS
VL: QSVLTQPPSASGTPGQRVTISCTGSSSNIGSNAVTWYQQLPGTAPKLLIYYDSHRPSGVPDRFSGSKSGTSASLAISGPRSEDEADYYCGAWDSSLSAYVFGGGTKLTVLG
notes: as for B2
B5: clone MS504 anti-MSLN antibody (antibody, IgG1, V domains shown)
VH: EVQLLESGGGLVQPGGSLRLSCAASGFTFSNYAMSWVRQAPGKGLEWVSSIYPNGSSKYYADSVKGRFTISRDNSKNTLYLQMNSLRAEDMAVYYCAKNLLTFDYWGQGTLVTVSS
VL: QSVLTQPPSASGPPGQRVTISCTGSSSNIGNNSVSWYQQLPGTAPKLLIYYDSHRPSGVPDRFSGSKSGTSASLAIGGLRSEDEADYYCGAWDDSLNAYVFGGGTKLTVLG
notes: as for B2
B6: clone 2-30 (MS502 heavy chain variable region mutation antibody) (antibody, V domains shown)
VH: EVQLLESGGGLVQPGGSLRLSCAASGFTFSNYAMSWVRQAPGKGLEWVSGIPPDSNSKYYADSVRGRFTVSRDNSKNTLYLQMNSLRAEDTAVYYCAKNMRTFDYWGQGTLVTVSS
VL: QSVLTQPPSASGTPGQRVTISCTGSSSNIGSNAVSWYQQLPGTAPKLLIYYNSKRPSGVPDRFSGSKSGTSASLAISGLRSEDEADYYCGSWDSSLNGYVFGGGTKVTVLG
notes: SPR done with IgG (human heavy chain constant region vector, MS502 light chain)
B7: clone 2-30-C2G4 antibody (antibody, V domains shown)
VH: EVQLLESGGGLVQPGGSLRLSCAASGFTFSNYAMSWVRQAPGKGLEWVSGIPPDSNSKYYADSVRGRFTVSRDNSKNTLYLQMNSLRAEDTAVYYCAKNMRTFDYWGQGTLVTVSS
VL: QSVLTQPPSASGTPGQRVTISCTGSSSNIGSNAVSWYQQLPGTAPKLLIYYNSKRPSGVPDRFSGSKSGTSASLAISGLRSEDEADYYCGSWDPSLNGYVFGGGTKVTVLG
notes: IgG (human IgG1 heavy chain constant region; light chain constant region said to be human kappa)
B8: clone 2-73-C2G4 antibody (antibody, V domains shown)
VH: EVQLLESGGGLVQPGGSLRLSCAASGFTFSNYAMSWVRQAPGKGLEWVSGIPPNSDSKYYADSVRGRFTVSRDNSKNTLYLQMNSLRAEDTAVYYCAKNMLSFDYWGQGTLVTVSS
VL: QSVLTQPPSASGTPGQRVTISCTGSSSNIGSNAVSWYQQLPGTAPKLLIYYNSKRPSGVPDRFSGSKSGTSASLAISGLRSEDEADYYCGSWDPSLNGYVFGGGTKVTVLG
notes: as for B7
B9: clone 2-78 (MS502 heavy chain variable region mutation antibody) (antibody, V domains shown)
VH: EVQLLESGGGLVQPGGSLRLSCAASGFTFSNYAMSWVRQAPGKGLEWVSGIPPDSGSKYYADSVRGRFTVSRDNSKNTLYLQMNSLRAEDTAVYYCAKNMFSFDYWGQGTLVTVSS
VL: QSVLTQPPSASGTPGQRVTISCTGSSSNIGSNAVSWYQQLPGTAPKLLIYYNSKRPSGVPDRFSGSKSGTSASLAISGLRSEDEADYYCGSWDSSLNGYVFGGGTKVTVLG
notes: as for B6
B10: clone 56 (MS502 heavy chain variable region mutation antibody) (antibody, V domains shown)
VH: EVQLLESGGGLVQPGGSLRLSCAASGFTFSNYAMSWVRQAPGKGLEWVSGIPPDSASKYYADSVRGRFTVSRDNSKNTLYLQMNSLRAEDTAVYYCAKNMLSFDYWGQGTLVTVSS
VL: QSVLTQPPSASGTPGQRVTISCTGSSSNIGSNAVSWYQQLPGTAPKLLIYYNSKRPSGVPDRFSGSKSGTSASLAISGLRSEDEADYYCGSWDSSLNGYVFGGGTKVTVLG
notes: as for B6
B11: clone 56-C2G4 antibody (antibody, V domains shown)
VH: EVQLLESGGGLVQPGGSLRLSCAASGFTFSNYAMSWVRQAPGKGLEWVSGIPPDSASKYYADSVRGRFTVSRDNSKNTLYLQMNSLRAEDTAVYYCAKNMLSFDYWGQGTLVTVSS
VL: QSVLTQPPSASGTPGQRVTISCTGSSSNIGSNAVSWYQQLPGTAPKLLIYYNSKRPSGVPDRFSGSKSGTSASLAISGLRSEDEADYYCGSWDPSLNGYVFGGGTKVTVLG
notes: as for B7
B12: clone MI407 anti-MSLN antibody (antibody, V domains shown)
VH: EVKLVESGGGLVKPGGSLKLSCAASGFPFSNYDMSWVRQTPEKRLEWVAYISSGGGNTYYPDTVKGRFTISRDNAKNTLYLQMSSLKSEDTALYFCVRQGTSVESYWYFDVWGAGTTVTVSS
VL: DIVLTQSPASLAVSLGQRATISCRASQSVSTSSSSYIHWYQQKPGQPPKLLIKYASNLESGVPARFSGSGSGTDFTLNIHPVEEDDTATYYCQHSWEIPFTFGSGTELEIKR
notes: also called M1407
B13: clone MS505 anti-MSLN antibody (antibody, IgG1, V domains shown)
VH: EVQLLESGGGLVQPGGSLRLSCAASGFTFSNYAMSWVRQAPGKGLEWVSAIYPDGSNKYYADSVKGRFTVSRDNSKNTLYLQMNSLRAEDTAVYYCARNAYTFDYWGQGTLVTVSS
VL: QSVLTQPPSASGTPGRRVTISCSGSSSNIGSNAVSWYQQLPGTAPKLLIYYNSQRPSGVPDRFSGSKSGTSASLAISGLRSEDEADYYCGSWDSSLNGYVFGGGTKLTVLG
notes: as for B2

Molecular target: T1, recombinant human mesothelin (MSLN) (human, UniProt Q13421 296-580, limits assumed)
T1 construct: also called human MSLN; recombinant human MSLN
Test: ELISA, clone supernatant on MSLN-coated plate
Description: Single colonies of a phage display synthetic scFv library final amplified population were collected, and cultured with 1.5 mL of SB/carbenicillin to an OD₆₀₀ of 0.8 to 1.0 at 37° C. and at 220 rpm, and then cultured with 1 mM IPTG at 30° C. and at 200 rpm for 12 hours or more. The reaction materials were centrifuged at 5500 rpm for 5 minutes, and only each supernatant was added to ELISA plates containing underlying MSLN antigen, and reacted at room temperature for 2 hours. Then, the resultant materials were washed with PBST (1×PBS, 0.05% tween 20) four times, and HRP/Anti-hFab-HRP conjugate diluted by 1/5000 with 1% BSA/1×PBS was added thereto, and reacted at room temperature for 1 hour, and washed with PBST (1×PBS, 0.05% tween 20) 4 times. Then, a TMB solution was added thereto and reacted for 5 to 10 minutes, and a TMB stop solution was added thereto. Next, O.D values were measured at a measurement wavelength of 450 nm using a TECAN sunrise, and clones having high O.D. value were secured as individual clones.

T1 sequence (Q13421 other isoform, or with tags, fused parts or gaps limits assumed): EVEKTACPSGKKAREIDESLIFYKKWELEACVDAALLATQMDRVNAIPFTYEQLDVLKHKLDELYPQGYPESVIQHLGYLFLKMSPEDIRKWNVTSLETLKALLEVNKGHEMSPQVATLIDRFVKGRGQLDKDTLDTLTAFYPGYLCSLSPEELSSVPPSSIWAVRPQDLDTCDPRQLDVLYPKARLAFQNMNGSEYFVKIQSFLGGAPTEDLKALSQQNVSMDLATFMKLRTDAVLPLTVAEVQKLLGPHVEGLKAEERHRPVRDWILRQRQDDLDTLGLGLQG

Binder	binding result
B1	binds
B2	binds
B3	binds
B4	binds
B5	binds

Molecular target: T1, recombinant human mesothelin (MSLN)
Test: SPR, Biacore T-200; MSLN amine-coupled to CM5 chip, IgG in flow
Description: The quantitative binding force (affinity) of each of the purified anti-MSLN antibodies, i.e., MS502 clone heavy chain variable region mutation antibodies 56, 2-30, 2-73, 2-78, and the combination antibodies of the C2G4 light chain variable region and the heavy chain variable region mutation antibodies including 56-C2G4, 2-30-C2G4, 2-73-C2G4, 2-78-C2G4 with regard to recombinant human mesothelin (MSLN) was measured by using a Biacore T-200 (GE Healthcare, U.S.A.) biosensor. […] Then, the clone 56 antibody, the clone 2-30 antibody, the clone 2-73 antibody, the clone 2-78 antibody, the clone 56-C2G4 antibody, the clone 2-30-C2G4 antibody, the clone 2-73-C2G4 antibody, and the clone 2-78-C2G4 antibody serially diluted with HBS-EP buffer (10 mM HEPES, pH7.4, 150 mM NaCl, 3 mM EDTA, 0.005% surfactant P20) were allowed to flow at a concentration range of 0.078 nM to 5 nM and at a flow rate of 30 μL/min for association of 120 seconds and dissociation of 1800 seconds. The dissociation of the antibody bound to the MSLN was induced by flowing 10 mM Glycine-HCl pH 1.5 at a flow rate of 30 μL/min for 30 seconds (Table 17). The affinity was obtained as movement speed constants (Kₒₙ and Koff) and an equilibrium dissociation constant (KD) by using a Biacore T-200 evaluation software (Table 18).

Binder	Kd
B6	166 pM
B7	234 pM
B8	165 pM
B9	16.3 pM
B10	125 pM
B11	163 pM

Molecular target: T2, human mesothelin (MSLN) on the cell surface (human, UniProt Q13421 296-598)
T2 construct: also called MSLN of mesothelioma (H226, H2052) and pancreatic cancer (AsPC-1) cell lines; MSLN on MiaPaCa-MSLN #2 cells
Test: FACS on MSLN stable cell line (#2), left panels; sheet note: 1st Ab 1 µg (1st assay), 2nd Ab anti-human Fc antibody FITC
Description: FACS test was performed on the MSLN present in the cell surface with regard to MiaPaCa-MSLN which is a cell line in which the MSLN was artificially expressed. Cells to be analyzed that were grown in a culture dish were separated by adding a Tryple Express solution and stored in a 50 mL tube, followed by centrifugation at 2000 rpm at room temperature for 3 minutes to decant the culture fluid, and the obtained product was washed once with PBS. The cells were suspended with FACS buffer, and transferred to a round bottom tube and centrifuged at 2000 rpm at room temperature for 3 minutes. The supernatant was discarded and the cells were well-loosened with the FACS buffer so as to have a cell density of 4×10⁵/mL. Then, 1 μg of candidate antibody was added thereto at 4° C. After 1 hour, the resultant material was washed with the FACS buffer twice, and goat-derived anti-human IgG antibody (FITC junction) was added in an amount of 1 μL for each sample to be combined at 4° C. for 30 minutes. The cells were collected by centrifugation at 2000 rpm for 3 minutes, and 500 μL of fixation buffer was added to resuspend the cells, and the cells were measured by FACS calibur (FIG. 6).
The FACS test was performed to evaluate whether the anti-MSLN antibody was selectively bound to the MSLN-overexpressing cell line (MiaPaCa-MSLN #2). The anti-MSLN candidate antibody was labeled by the method described in Example 4-2 above, and the cells were measured by FACS calibur (FIG. 7).

T2 sequence (Q13421 other isoform, or with tags, fused parts or gaps limits assumed): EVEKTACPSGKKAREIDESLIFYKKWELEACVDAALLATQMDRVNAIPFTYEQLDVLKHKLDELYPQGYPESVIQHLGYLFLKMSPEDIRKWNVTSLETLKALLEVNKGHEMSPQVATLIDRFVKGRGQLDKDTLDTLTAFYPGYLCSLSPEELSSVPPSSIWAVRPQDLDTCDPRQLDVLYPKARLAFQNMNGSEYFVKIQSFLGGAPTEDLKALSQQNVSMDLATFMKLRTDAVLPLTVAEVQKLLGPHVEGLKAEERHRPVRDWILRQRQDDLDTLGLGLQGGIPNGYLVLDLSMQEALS

Binder	Mean, FL1-H
B12	225
B13	181

Reference: patent US20180346588A1 (MOGAM INSTITUTE FOR BIOMEDICAL RESEARCH, published 2018)
